From patent US20120022129

Biological target: flag-tagged WT HDAC2 (1-488)
Sequence (chain, as listed by the source): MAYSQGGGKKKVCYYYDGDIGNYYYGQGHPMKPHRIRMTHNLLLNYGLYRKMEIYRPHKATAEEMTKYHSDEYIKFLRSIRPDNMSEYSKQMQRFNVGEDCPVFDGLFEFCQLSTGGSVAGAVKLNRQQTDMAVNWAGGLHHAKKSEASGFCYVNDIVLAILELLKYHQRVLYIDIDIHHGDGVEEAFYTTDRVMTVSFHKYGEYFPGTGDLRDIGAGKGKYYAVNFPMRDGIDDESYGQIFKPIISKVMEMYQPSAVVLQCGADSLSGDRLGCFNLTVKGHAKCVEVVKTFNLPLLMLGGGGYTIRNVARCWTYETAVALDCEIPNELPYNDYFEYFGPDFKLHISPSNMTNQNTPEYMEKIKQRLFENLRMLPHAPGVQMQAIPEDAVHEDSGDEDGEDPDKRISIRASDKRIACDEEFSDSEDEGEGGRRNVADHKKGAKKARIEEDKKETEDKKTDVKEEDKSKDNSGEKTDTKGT

B1: protein kinase CK2 catalytic subunit CK2α (protein)
chain: MSGPVPSRARVYTDVNTHRPREYWDYESHVVEWGNQDDYQLVRKLGRGKYSEVFEAINITNNEKVVVKILKPVKKKKIKREIKILENLRGGPNIITLADIVKDPVSRTPALVFEHVNNTDFKQLYQTLTDYDIRFYMYEILKALDYCHSMGIMHRDVKPHNVMIDHEHRKLRLIDWGLAEFYHPGQEYNVRVASRYFKGPELLVDYQMYDYSLDMWSLGCMLASMIFRKEPFFHGHDNYDQLVRIAKVLGTEDLYDYIDKYNIELDPRFNDILGRHSRKRWERFVHSENQHLVSPEALDFLDKLLRYDHQSRLTAREAMEHPYFYTVVKDQARMGSSSMPGGSTPVSSANMMSGISSVPTPSPLGPLAGSPVIAAANPLGMPVPAAAGAQQ
B1 was tested, and the “HDAC2 serine phosphorylation (phospho-serine western blot of immunoprecipitated flag-tagged HDAC2)” value was “HDAC2 phosphorylation seemed to correlate with the level of CK2α binding”.
